In article PMC8561398, “The Histidine Ammonia Lyase of Trypanosoma cruzi Is Involved in Acidocalcisome Alkalinization and Is Essential for Survival under Starvation Conditions” (mBio, 2021):

Substrate: N[C@@H](Cc1c[nH]cn1)C(=O)O
Assay: purified protein
Format: biochemical, Trypanosoma cruzi
Settings: 100 mM Tris-HCl pH 8.8, 0.1 mM MnCl2, 1.7 mM reduced glutathione, 30°C, L-histidine 0.2 to 5 mM, four catalytic sites considered

B1: 6×His-HAL (rHAL; histidine ammonia lyase) (Trypanosoma cruzi strain CL Brener) (protein)
chain: MRVILDGCSLTPDVLYALGYEKGATIEISDEAVARITAARAVIDKIVNDRQTVYGINTGFGKFESTIIPPHQLEELQLNLIRSHSACVGEPLTPERARMMLALRVNVLCKGHSGIRLETVQKYVKAFNAGVVPYIPEQGTVGASGDLGPLSHLALGMLGEGLLATLNNKKFRDAGSVLRELGVEPITLAAKEGLALINGTQFISALGAEAVVRARKIARLADVALAMSHEALRATNSTLNPDIHRVRPHKGQQLVAQRLRALLHSEEYPSMINESHVNCGRVQDAYSIRCAPQVHGISNEVIEWVYGILTTELNCATDNPLVFPDGVKKVVSGGNFHGEYPAKALDMLAIGVHELGNISERRIERLNNPTLSRLPAFLVKNGGLNSGFMIAHCTAAALVSENKVYCHPASADSISTSAAQEDHVSMGGFSARKAIKVVENVERIIAIELLGACQGIDLLRPLRTTEPMEKVWSLVRSVSPPWEEDRVINTDIDNVTKLLRSGAVWKTVKPYVPEEARFLGVLTVKKPFELKSKM
notes: four catalytic sites considered; Q4E133 used for alignment; locus tag from YC6
- kcat: 9.027 to 11.7 s⁻¹
